Laboratory results reported in patent US20100087625.
Numbering of substitutions follows the chain as printed.

Experiments:
[1] = test system: T1, S1S2proBMP-2 (human proBMP-2 with S1 site REKR replaced by TNGIEGRALDP and S2 site RISR mutated to AISR; construct IND2372)
T1 sequence: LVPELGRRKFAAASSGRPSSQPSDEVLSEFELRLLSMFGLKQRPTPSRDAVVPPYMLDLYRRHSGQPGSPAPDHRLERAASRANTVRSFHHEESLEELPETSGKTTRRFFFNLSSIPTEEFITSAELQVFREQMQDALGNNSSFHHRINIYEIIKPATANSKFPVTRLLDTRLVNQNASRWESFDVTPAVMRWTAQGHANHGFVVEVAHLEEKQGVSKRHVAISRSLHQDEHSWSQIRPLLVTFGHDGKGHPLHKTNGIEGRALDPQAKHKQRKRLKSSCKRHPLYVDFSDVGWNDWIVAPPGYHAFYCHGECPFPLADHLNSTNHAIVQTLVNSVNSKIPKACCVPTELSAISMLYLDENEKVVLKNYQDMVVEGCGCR

[2] = test system: T2, S1proBMP-2 (human proBMP-2 with the S1 furin cleavage site REKR replaced by TNGIEGRALDP; constructs IND2340 and IND2341)
T2 sequence: T1 sequence with A222R

[3] = test system: T3, recombinant human proBMP-2 (wild type, produced by CHO-BMP-2 cells)
T3 sequence: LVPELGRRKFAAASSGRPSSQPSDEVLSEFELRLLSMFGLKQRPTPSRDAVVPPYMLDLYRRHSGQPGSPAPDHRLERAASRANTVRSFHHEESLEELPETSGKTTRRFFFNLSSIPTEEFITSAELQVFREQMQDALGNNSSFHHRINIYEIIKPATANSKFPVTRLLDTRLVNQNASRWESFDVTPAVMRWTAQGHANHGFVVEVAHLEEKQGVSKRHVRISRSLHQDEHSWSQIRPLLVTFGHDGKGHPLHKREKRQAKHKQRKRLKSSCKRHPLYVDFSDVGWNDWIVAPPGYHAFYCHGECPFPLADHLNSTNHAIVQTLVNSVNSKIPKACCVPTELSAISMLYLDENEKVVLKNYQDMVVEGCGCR

Substance: Factor Xa (Restriction Protease Factor Xa Cleavage and Removal Kit, Roche Applied Science Cat #1 644 777)
- Western blot after digestion with Factor Xa [1]: Cleavage of mutant BMPs S1 proBMP and S1 S2proBMP-2 by Factor Xa produced a mature BMP-2 that remained a dimer under non-reducing conditions with an apparent molecular weight of 30-32 KD
- Western blot after digestion with Factor Xa [2]: Cleavage of mutant BMPs S1 proBMP and S1 S2proBMP-2 by Factor Xa produced a mature BMP-2 that remained a dimer under non-reducing conditions with an apparent molecular weight of 30-32 KD

Substance: furin (Sigma)
- Western blot after in vitro digestion with furin [3]: the purified CHO proBMP-2 monomers migrated at approximately 55 kDa were cleaved after 1 hr incubation with furin
